Measured values from paper PMC11928058.

Key:
[1] = biological target: Rap1 (mouse (endogenous in immortalized murine lung endothelial cells)) (UniProt P62835); experiment: proximity ligation; Duolink PLA read by flow cytometry; immortalized mouse endothelial cells expressing CIBN–GFP–CAAX and CRY2–mCherry–talin, in the dark or with blue light for 30 min at room temperature, fixed, permeabilized, stained with rabbit anti-mCherry and mouse anti-Rap1; with or without overexpressed mAzurite–FLAG–WT SPN
Sequence of UniProt P62835 (P62835 whole entry): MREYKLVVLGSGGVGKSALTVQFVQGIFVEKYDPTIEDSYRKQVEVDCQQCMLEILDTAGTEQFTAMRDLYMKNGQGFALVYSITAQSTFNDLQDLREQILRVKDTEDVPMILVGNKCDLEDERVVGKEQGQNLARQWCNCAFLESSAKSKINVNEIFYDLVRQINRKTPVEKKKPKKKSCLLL

[2] = biological target: Rap1 (mouse (endogenous in immortalized murine lung endothelial cells)) (UniProt P62835); experiment: proximity ligation; Duolink PLA read by flow cytometry; immortalized murine lung endothelial cells in suspension, in the dark or with blue light for the indicated times, rabbit anti-SHANK3 and mouse anti-Rap1; signal as fold over a sample without primary antibodies; cells with SHANK3 shRNA as control

“CRY2–mCherry–talin (full-length mouse talin-1) (from UniProt P26039 1-2541) (natural protein)” was tested, and the increase of the PLA signal with blue light over dark [1] was 10% and the percent reduction of the PLA signal of m4 with m2 after 30 min of blue light [2] was 40%.

“mAzurite–FLAG–WT SPN (wild-type SPN domain of SHANK3) (domain or fragment)” showed a percent reduction of the PLA signal of m1 with m2 [1] of 70%.

“SH3 and multiple ankyrin repeat domains 3 (SHANK3) (from UniProt Q4ACU6 1-1730) (natural protein)” showed a PLA signal, fold over the same cells expressing SHANK3 shRNA [2] of 3 fold.
